Consider 40 sequences from the nanobody polyreactivity screen of Harvey et al. (2022).

This data set is described as follows: yeast display, Sf9 membrane polyspecificity reagent, FACS + sequencing; frameworks hold sequencing errors. The procedure, abridged: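 Using colony PCR, genes from sorted yeast display clones were amplified, then sequenced on MiSeq at 2 × 250 and filtered by CDR length. The clones had been stained with 10% biotinylated, detergent-solubilized Sf9 membrane reagent for 1 hour at 4 °C and sorted by FACS into low and high (top ~1%) gates on anti-HA and streptavidin fluorescence. Polyreactivity labels come from the gate of origin.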
Regarding “QGQLVESGGGLFQAGGSLSLSCASSGRTITHNVMGWYRQAPGKEMELVAGISSTGGSTYYADSVKGRFTISRDNSKNTVYLQMNSLKPEDTAVYYCAKEYYDGYFPSFDYEYWGQGTQVTVSS”, the “polyreactivity (PSR sort gate)” value is “low polyreactivity”.

For “QGQLVESGGGLVQAGCSLRLSCAASGSTFRRYAMGWDRQAPGKERELVATINWSGGRTYYADSVKGRFTISRDNAKKTGSLQMNRLKPVDTAVYYCAKADYYGYHYYYWGQGTQVTVSS”, the “polyreactivity (PSR sort gate)” value is listed as “high polyreactivity”.

Regarding “QGQLVESGGGLVQAGGRLRLSCAASGFTFRHNAMGWYRQAPGKETELVAAISWSDGSTYADSVKGRFTISRDNAKNTVYLQMNSLKPEDTAVYYCNADYPSYRYFTGRDYWGQGTQVTVSS”, the “polyreactivity (PSR sort gate)” value is “low polyreactivity”.

In the case of “QGQLVESGGGLVQAGGRLRLSCAASGSTLWRYAMGWYRQAPRKERELVAGISRGGGSTYYADSVKGRFTISRDNAKNTVYLQMYSLKPEDTGVYYCATPVNQVRGAFDYWGQGTQVSVSS”, the “polyreactivity (PSR sort gate)” value is recorded as “low polyreactivity”.

Take “QGQLVESGGGLVQAGGSIRLSCAASGYIFRRYAMGWYRQAPGKEREFVATISRSGGSTYYADSVKGRFTISRDNAKNTVYLQMNSLKPEDTAVYYCNAGYGYGYPKYDYWGQCTQVTVSS”: the “polyreactivity (PSR sort gate)” value is “high polyreactivity”.

In the case of “QGQLVESGGGLVQAGGSLLLSCAASGRTFYNYYTMGLYRQAPGKERELVAAISRSGSTNYADSVKGRFTISRDTAKNTVYLQMNSLKPEDTAVYYCARSYRSDGSRFGYWGQGTQVTVSS”, the “polyreactivity (PSR sort gate)” value is reported as “low polyreactivity”.

As for “QGQLVESGGGLVQAGGSLRFSCAASGSTFVWYAMGWYRQAPGKERELVAGINRSGGSRYYADSVKGRFTILRDNAKNTVYLQMNSLKPEDTAVYYCAARGKRFRNSRIAYDYWGKGTQVTVSS”, the “polyreactivity (PSR sort gate)” value is reported as “high polyreactivity”.

Take “QGQLVESGGGLVQAGGSLRLSCAAAGFTFGSYAMGWYRHAPGKERELFARISSDGSTNYADSVKGRFTISSDNAKNTVYLQMNSLKPEDTAVYYCNADRQYTCSLVFFSSDYDYWGLGTQVTVSS”: the “polyreactivity (PSR sort gate)” value is given as “low polyreactivity”.

For “QGQLVESGGGLVQAGGSLRLSCAASGFIFYKNAMGWYRQAPGKARELVAAITWSGGSTYYADSVKGRFTISRDNAKNTVYLQMNSLKPEDTAVYYCAAGVTWISWVWYDYWGQGTQVTVSS”, the “polyreactivity (PSR sort gate)” value is recorded as “low polyreactivity”.

On to “QGQLVESGGGLVQAGGSLRLSCAASGFIYGFYGMGWYRQAPGKEREFVAAIDFIDGDTYYADSVKGRFTISRDNAKNTVYLQMNSLKPEDTAVYYCAAVGSFWQFDYWGQGTQVTVSS”, for which the “polyreactivity (PSR sort gate)” value is “low polyreactivity”.

As to “QGQLVESGGGLVQAGGSLRLSCAASGFTFAGYARGWYRQAPGKERELVAAINRGGSTYYADSVKGRFTISRDNAKNTVYLQMNSLTPEDTAVYYCAARQEPGWYPDVWWEYDYWGQGTQVTVSS”, the “polyreactivity (PSR sort gate)” value is given as “low polyreactivity”.

As to “QGQLVESGGGLVQAGGSLRLSCAASGFTFYKNTMGWYRQAPGKERELVAAISSSGSSTYYADSVKGRFTISRDNAKNTVYLQMISLKPEDTAVYYCAACSFAYHDDYWGQGTQVTVSS”, the “polyreactivity (PSR sort gate)” value is “high polyreactivity”.

As for “QGQLVESGGGLVQAGGSLRLSCAASGLTFYYYARGWYRQAPGKERELVATISSRGGSTNYADSVKGRFTISRDNAKNTVYLQMNSLKPEDTAVYYCATDNSGYPRLNYWGQGTHVTVSS”, the “polyreactivity (PSR sort gate)” value is “high polyreactivity”.

As to “QGQLVESGGGLVQAGGSLRLSCAASGRIFVPYGMGWYRQAPGKERELVAAITTGGSTNYADSVKGRFTISRDNAKNTVYLQMNSLKPEDTAVYYCAVDWYPQLIYSFNSELEYWGQGTQVTVSS”, the “polyreactivity (PSR sort gate)” value is listed as “low polyreactivity”.

For “QGQLVESGGGLVQAGGSLRLSCAASGRISYYYAMGWYRQAPGKERELVAAISRRSTSTYYADSVKGRFTISRDYAKNTVYLQMNSLKPEDTAVYYCAARYIRAFSWRMDYWGQGTQVTVSS”, the “polyreactivity (PSR sort gate)” value was “high polyreactivity”.

As for “QGQLVESGGGLVQAGGSLRLSCAASGRIVRPNAMGWYRQAPGKETEFVAAISSGGSTYYADSVKGRFTISRDNAKNSVYLQMNSLKPEDTAVYYCAADLSNRPYYRQGYDYWGQGTQVTVSS”, the “polyreactivity (PSR sort gate)” value is given as “high polyreactivity”.

For the sequence “QGQLVESGGGLVQAGGSLRLSCAASGRIVSVYAMGWYRQAPGKEREFVASISWRGGRTYYADSVKGRFTISRDNAKNTVYLQMNSLKPEDTALYYCATGYDYYVRRYYYWGQGTQVSVSS”, the “polyreactivity (PSR sort gate)” value was “high polyreactivity”.

Regarding “QGQLVESGGGLVQAGGSLRLSCAASGRTFKYYAMGWYRQAPGQERELVAAISYNGGSTFYADSVKGRFTISRDNAKNTVYLQMNSLKPEDTAVYYCAAVYRYRNRRDYDYWGQGTQVTVSS”, the “polyreactivity (PSR sort gate)” value was “high polyreactivity”.

On to “QGQLVESGGGLVQAGGSLRLSCAASGRTFTYYVMGWSRQAPGKERELVAAISWTGGSTNYADSVMGRFTISRDNAKNTVYLQMNSRKPEDTAVYYCNAGGFFGYGRPGYYWGQGTQVTVSS”, for which the “polyreactivity (PSR sort gate)” value is on record as “low polyreactivity”.

Consider “QGQLVESGGGLVQAGGSLRLSCAASGRTFYLNAMGWYRQAPGKERELVAAINRGTRTYYADSVKGRFTISRDNAKNTVFLQMNSLKPDETAVYYCASVPRYYYSSSYTMDYWGQGTQVTVSS”, for which the “polyreactivity (PSR sort gate)” value is “high polyreactivity”.

As to “QGQLVESGGGLVQAGGSLRLSCAASGRTLYYYAMGWYRQAPGKERELVASIDWDSGITDYADSVTGRFTISRANAKNTVYLQMNILTPEDTAVYYCAAVRVTKKYSYEYWGQGTQVTVSA”, the “polyreactivity (PSR sort gate)” value is on record as “low polyreactivity”.

Turning to “QGQLVESGGGLVQAGGSLRLSCAASGSIFLTNAMGWYRQAPGKEREFVAAIDWGGTITYYADSVKGRFTISRDNAKNTVYLQMNSLKPEDTAVYYCNRVFPPTDYEFDSWGQGTQGTVSS”, the “polyreactivity (PSR sort gate)” value was “low polyreactivity”.

Consider “QGQLVESGGGLVQAGGSLRLSCAASGSIFPGYTMGWYRQAPGKERELVAVISSDGRTHYADSVKGRFTISRDNAKNTVYLQMNSLKPEDSAVYYCAAAKRAYGYVLHAFYYWGQGTQVTVSS”, for which the “polyreactivity (PSR sort gate)” value is “high polyreactivity”.

As for “QGQLVESGGGLVQAGGSLRLSCAASGSIFPRYVMGWYRQAPGKERELVAAITTSGGRTYYADSVKGRFTISRDNAKKTVYLQMNSQKPVDTAVYYCAARPWGYRYGSEYVGGDYWGQGTQVTVSS”, the “polyreactivity (PSR sort gate)” value is “high polyreactivity”.

For the sequence “QGQLVESGGGLVQAGGSLRLSCAASGSIFSSNAMGWYRQAPGKQRELVAAIDWDSGSTSYADSVKGRFTISRDNAKNTVYLQMISLKPEDTAVFYCAADEVLSGYYTLDYWGQGTQVTVSS”, the “polyreactivity (PSR sort gate)” value is listed as “low polyreactivity”.

Regarding “QGQLVESGGGLVQAGGSLRLSCAASGSIFSVNTMGWYRQAPGKERELVATIRTGDSTNYADSVKGRFTISRDNAKNTVYLQMNSLKPEDTAVYYCAADWSSLNFDYWGQGTQVTVSS”, the “polyreactivity (PSR sort gate)” value is listed as “low polyreactivity”.

Turning to “QGQLVESGGGLVQAGGSLRLSCAASGSIFWDNVMGWSRQAPGKERELVADIDSWDGGSTYYADSVKGRFTISRDNAKNTVYLQMHSRKPEDTAVYYCNTDVLWWRGGDDFWGQGTQVTVSS”, the “polyreactivity (PSR sort gate)” value is listed as “low polyreactivity”.

Turning to “QGQLVESGGGLVQAGGSLRLSCAASGSILLYYAMGWYRQAPGKEWELVAAITGGGGTNYADAGKGRFTISRDNAKNTVYLQMNSLIPEDTAVYYCAADPSGQFPYSYYNYDYDYWGQGTQVTVSS”, the “polyreactivity (PSR sort gate)” value is given as “low polyreactivity”.

As to “QGQLVESGGGLVQAGGSLRLSCAASGSILRSYAMGWSIQAPRKVRELVATITRSAGRTYYADSVKGRFTISRDNAKNTVYLQMNSLKPEDTALYYCAACYCDTETGYREYDYWGQGTQVNVSS”, the “polyreactivity (PSR sort gate)” value was “low polyreactivity”.

With “QGQLVESGGGLVQAGGSLRLSCAASGSTFGYNVMGWYRQATGKERELVAAINYSGVRTYYADSVKGRFTISRDNAKNTVYLQMNSLIPEDTAVYYCNATPTRAVGPYQYNYWGQGTQVTVSS”, the “polyreactivity (PSR sort gate)” value was “high polyreactivity”.

In the case of “QGQLVESGGGLVQAGGSLRLSCAASGSTFQGYAMGWYRQAPGKERELVAAISGRSGSTYYADSVKGRFTISRDNAKNTVYLQMNSLKPEDTADYYCAAGIPFRQRLRRYYYWGQGSQVTVSS”, the “polyreactivity (PSR sort gate)” value is “high polyreactivity”.

“QGQLVESGGGLVQAGGSLRLSCAASGSTFTSSAMGWSRQGPGKERELVAAISRSGGRTYYADSVKGRFTISRDNAKTTVYLQMNSQKPEDTAVYYCAADRSRWGQGTQVTVSS”: the “polyreactivity (PSR sort gate)” value is given as “high polyreactivity”.

“QGQLVESGGGLVQAGGSLRLSCAASGSTFVYYARGWYRQAPGKEREMVAAIRYSGASTYYADSVKGRFTISRDNAKNTVYLQMNSLKPEDTAVYYCAAQPTTRRVPRFSSRARHYYWGQGTQVTVSS”: the “polyreactivity (PSR sort gate)” value is on record as “high polyreactivity”.

Take “QGQLVESGGGLVQAGGSLRLSCAASGSTVSYNAMGCSRPARGKERALVAAISSGGRTYYADSVKGRFTISRDNAKKTVYFQMNSLKPEDTAVYYCAVYETHWGYWYELDYWGQGTQVTVSS”: the “polyreactivity (PSR sort gate)” value is on record as “high polyreactivity”.

Take “QGQLVESGGGLVQAGGSLRLSCAPSGGTFEFYTMGWYRQAPGKERELVAVINASGDSTYYADSVKGRFTISRDNAKNTVYLQMNSLKPEDTAVYYCAADHRGEYDYWGQGTQVTVSS”: the “polyreactivity (PSR sort gate)” value is “low polyreactivity”.

For the sequence “QGQLVESGGGLVQAGGSLRLSCDASGSTFFENTMGWYRQAHGQERELVAAITSGGGRPYYADSVKGRFTISRDNAKNTVYLQLNSLKPEETAVYYCAARARYTRRGRHYDYWGQGTQVTVSS”, the “polyreactivity (PSR sort gate)” value was “high polyreactivity”.

On to “QGQLVESGGGLVQAGGSLRLSSAASGSTHALYTMGWYRQARGKARQLVAAISKNGGRTYYADSVKGRFTISRDNAKNTVYVQMNSLKPEDTAVYYCAAASGSYRGYDYWGQGTQVTVSS”, for which the “polyreactivity (PSR sort gate)” value is “high polyreactivity”.

On to “QGQLVESGGGLVQAGGSLRLTCAASGSNFVQNAMGWYRPAPGKERELVAVSNSGDSTNYADSVKGRFTISRDNAKNTVYLHMNSLKPEDNAVYYCAVDDVSYYYLRAYNYELSWYGSGLDYWGQGTQVTVSS”, for which the “polyreactivity (PSR sort gate)” value is given as “low polyreactivity”.

As to “QGQLVESGGGLVQAGGSLRLTCAASGSTFRWNVMGWYRQAPGKERELVAAISSTGDNTYYADSVKGRFTISRDNAKNTGYLQMNSLKPEDTAVYYCAAGRGARDRARKHGYWGQGTQVTVSS”, the “polyreactivity (PSR sort gate)” value was “high polyreactivity”.

As to “QGQLVESGGGLVQAGGSLSLSCAASGFIFSGYAMGWYRQAPGKERELVAAISTRGGRTYYADSVKGRFTISRDNAKNTVYLQMNSLKPEDTAVYYCAADSLYPELDYWGQGTQVTVSS”, the “polyreactivity (PSR sort gate)” value is given as “high polyreactivity”.
